Several values for one entry are separate records, joined by “and”; a condition that tells them apart may be missing. Equal values may be shown once.

Data set [1] concerns the molecule itself. Nature of the data set: SEC; gel permeation chromatography of purified rtnPTX3 in solution; result not shown. On the technique in general: SEC sorts molecules by how far they enter the pores of the column.
Data set [2] concerns the molecule itself. Briefly: SDS-PAGE and immunoblot; culture supernatant of transfected Trichoplusia ni cells, reducing conditions; results not shown. A general note: Immunoblotting shows a protein as a band on a membrane.
The target in data set [3] is T1, human C1q (human, UniProt P02745 23-245; P02746 28-253; P02747 29-245).
T1 construct: Complement C1q subcomponent subunit A, human; Complement C1q subcomponent subunit B, human; Complement C1q subcomponent subunit C, human; also called C1q component of the human complement system; source: bought: Merck; copies: + +
Nature of the data set: ELISA; 500 ng human C1q coated on 96-well plates in PBS pH 7.4 with 1 mM CaCl2 and 1 mM MgCl2; rtnPTX3 (12.5 ng/well, two preparations) added in PBS-Tween 20, 1 h at 37°C; bound rtnPTX3 detected with rabbit antibody raised to rPTX3. To be noted: both partners purified.

Data set [4] concerns the molecule itself. Briefly: SDS-PAGE and immunoblot; 25 μl of milk whey from infected udder quarters, run under reducing conditions; detected with immunoaffinity-purified antibodies raised to rS100A12 or rPTX3.

T1 sequence (P02745 23-245, chain 1 of 3): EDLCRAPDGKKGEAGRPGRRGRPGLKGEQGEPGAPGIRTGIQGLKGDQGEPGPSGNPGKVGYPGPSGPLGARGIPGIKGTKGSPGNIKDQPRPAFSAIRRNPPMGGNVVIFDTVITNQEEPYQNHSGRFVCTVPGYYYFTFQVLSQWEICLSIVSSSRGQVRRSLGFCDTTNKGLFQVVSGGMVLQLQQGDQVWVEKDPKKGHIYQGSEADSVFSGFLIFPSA
T1 sequence (P02746 28-253, chain 2 of 3): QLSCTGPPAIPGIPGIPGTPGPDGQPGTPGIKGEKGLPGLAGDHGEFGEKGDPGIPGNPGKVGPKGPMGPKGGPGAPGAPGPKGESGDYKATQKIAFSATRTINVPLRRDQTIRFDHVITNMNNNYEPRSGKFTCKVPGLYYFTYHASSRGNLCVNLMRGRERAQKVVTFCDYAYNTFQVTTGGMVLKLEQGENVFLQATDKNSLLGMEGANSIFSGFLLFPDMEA
T1 sequence (P02747 29-245, chain 3 of 3): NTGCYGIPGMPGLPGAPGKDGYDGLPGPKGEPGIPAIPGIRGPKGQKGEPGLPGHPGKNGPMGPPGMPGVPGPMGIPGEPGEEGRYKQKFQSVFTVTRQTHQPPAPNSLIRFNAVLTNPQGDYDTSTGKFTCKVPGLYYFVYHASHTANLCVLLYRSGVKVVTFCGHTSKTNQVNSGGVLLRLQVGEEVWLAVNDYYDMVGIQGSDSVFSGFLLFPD

B1: Recombinant bovine PTX3 (rtnPTX3) produced in Trichoplusia ni insect cells (natural protein, UniProt Q0VCG9 18-382, looked up)
chain: ENSDDYELMYVNLDNEIDNGLHPTEDPTPCDCSRENSEWDKLFTMLENSQMREGMLLQATDVMLRGELQKLQAELGRLEGSLQKLCGPEAPSETRLARALDDLLQASRDAGRRLARLEDAGALRPQEEAGRALGAVLEELRRTRADLRAVQGWAASRWLPAGCETAILFPMRSKKIFASVHPVTPMKLETFSACIWVKATEVLNKTVLFSYGTKRNPYEIQLYLSYRSIMLVVGGEENRLVADAVISLGTWTHLCSTWDSKKGHMALWVNGDSVATAVDMATGHVVPEGGILQIGQEKNGCCVGGGFDETLAFSGRLTGFNIWEGVLSNEEIREAGGAESCHIRGNVVGWGVTEIQPHGGAQYVY
notes: predicted size of the mature protein 40.2 kDa; The vector pIEx5 supplies the signal peptide of adipokinetic hormone for secretion; A few vector-derived residues at the N-terminus cannot be excluded; Two bands of 43 and 45 kDa, possibly differing in glycosylation at N221; also called Pentraxin-3; source: Trichoplusia ni (High Five) insect cells, transiently transfected with pIEX5-PTX3, secreted …
What is called stoichiometry N is a count of units in the complex or per binding partner. On to B1, for which the “stoichiometry N” value in data set [1] was determined as 10; in data set [2], 2. In data set [3], the binding result is “binds”.

B2: Pentraxin-3 (PTX3), endogenous in bovine milk whey (natural protein, bovine (endogenous in milk whey), UniProt Q0VCG9 18-382, looked up)
chain: ENSDDYELMYVNLDNEIDNGLHPTEDPTPCDCSRENSEWDKLFTMLENSQMREGMLLQATDVMLRGELQKLQAELGRLEGSLQKLCGPEAPSETRLARALDDLLQASRDAGRRLARLEDAGALRPQEEAGRALGAVLEELRRTRADLRAVQGWAASRWLPAGCETAILFPMRSKKIFASVHPVTPMKLETFSACIWVKATEVLNKTVLFSYGTKRNPYEIQLYLSYRSIMLVVGGEENRLVADAVISLGTWTHLCSTWDSKKGHMALWVNGDSVATAVDMATGHVVPEGGILQIGQEKNGCCVGGGFDETLAFSGRLTGFNIWEGVLSNEEIREAGGAESCHIRGNVVGWGVTEIQPHGGAQYVY
notes: Pentraxin-3 (PTX3), bovine, secreted into milk; predicted Mw of the mature protein 40.2 kDa; one potential N-linked glycosylation site (Asn221); source: endogenous, milk whey from udder quarters infected with S. aureus
Regarding B2, the “stoichiometry N” value in data set [4] came out at 2.

B3: S100 calcium-binding protein A12 (S100A12), endogenous in bovine milk whey (natural protein, bovine (endogenous in milk whey), UniProt P79105 1-92, looked up)
chain: MTKLEDHLEGIINIFHQYSVRVGHFDTLNKRELKQLITKELPKTLQNTKDQPTIDKIFQDLDADKDGAVSFEEFVVLVSRVLKTAHIDIHKE
notes: 92 amino acids, predicted size 10.7 kDa; also called calgranulin C; source: endogenous, milk whey from udder quarters infected with S. aureus
In the case of B3, the “stoichiometry N” value in data set [4] was 2 and 3.
